Test results published in US20080044422A1 (Janssen / Centocor, published 2008).

Molecular target: the molecule itself
Experiment: SELDI mass spectrometry of the purified protein alone, non-reduced sample (self-association)
Procedure: Recombinantly expressed proteins were analyzed by SDS-PAGE, anti-myc western blot, MALDI-MS, and SEC HPLC. In addition, O-linked glycosylation was analyzed by first treating the proteins with O-glycosidase with and without sialidase. The released O-glycans were labeled with anthranilic acid and analyzed by HPLC. The truncated CNGH0010.2 protein containing exons 1-5, 8, 9, 12, and 13 (SEQ ID NO:41) is predicted to be 37.5 kDa. […] In addition, it appears as if the molecule has a propensity to multimerize, as non-reduced analysis by SDS-PAGE, SELDI-MS (FIG. 5), and SEC-HPLC (FIG. 6), all indicate that dimeric and trimeric forms of the truncated CNGH0010.2 molecule exist in solution.

B1: truncated CNGH0010.2 protein containing exons 1-5, 8, 9, 12, and 13 (other)
chain: GPLQSGEESTGTNIGEALGHGLGDALSEGVGKAIGKEAGGAAGSKVSEALGQGTREAVGTGVRQVPGFGAADALGNRVGEAAHALGNTGHEIGRQAEDVIRHGADAVRGSWQGVPGHNGAWETSGGHGIFGSQGGLGGQGQGNPGGLGTPWVHGYPGNSAGSFGMNPQGAPWGQGGNGGPPNFGTNTQGAVAQPGYGSVRASNQNEGCTNPPPSGSGGGSSNSGGGSGSQSGSSGSGSNGDNNNGSSSGGSSSGSSSGGSSGGSSGGSSGNSGGSRGDSGSESSWGSSTGSSSGNHGGSGGGDGHKPGCEKPGNEARGSGESGIQGQGSSWGSGGGDAVGGVNTVNSETS
modifications: O-linked oligosaccharides (sites not given)
notes: The signal peptide (probably residues 1-21, same exon 1) is cleaved in the secreted protein; also called CNGH0010 (exons 1-13); His tagged CNGH0010.2 fusion protein; not shown: C-terminal hexa-His (myc-His vector) tag
binding result: binds
